Measured values taken from patent US20060183700A1, “Cgrp binding nucleic acids” (NOXXON Pharma AG, published 2006).
Read-outs that look alike come from different tables or passages of the source. Values belong to the molecule of their own block, whether it stands above or below them. Where no end group is shown, it is not given here.

Columns and labels:
[1] = target: T1, D-CGRP (biotinylated, all-D alpha-calcitonin gene-related peptide) (Rattus norvegicus) (UniProt P01256); conditions: 2'-F pyrimidines
T1 sequence: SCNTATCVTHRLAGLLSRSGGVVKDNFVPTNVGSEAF

[2] = target: T2, alpha-CGRP (L) (Homo sapiens) (UniProt P06881); assay: ITC; conditions: L-RNA; 37 C, activity 80%
T2 sequence: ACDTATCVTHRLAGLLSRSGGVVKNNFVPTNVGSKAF

[3] = target: T1, D-CGRP (biotinylated, all-D alpha-calcitonin gene-related peptide) (Rattus norvegicus); assay: SPR; conditions: 2'-F pyrimidines; clone shortened by two nucleotides; Biacore and ITC; higher by factor two at 37 C
[4] = target: T1, D-CGRP (biotinylated, all-D alpha-calcitonin gene-related peptide) (Rattus norvegicus); assay: pulldown; conditions: 2'-F pyrimidines, bead assay, 37 C, unit uM, probably nM
[5] = target: T3, calcitonin receptor on SK-N-MC cells (human) (UniProt P30988); assay: cell-based or functional assay
T3 sequence (looked up): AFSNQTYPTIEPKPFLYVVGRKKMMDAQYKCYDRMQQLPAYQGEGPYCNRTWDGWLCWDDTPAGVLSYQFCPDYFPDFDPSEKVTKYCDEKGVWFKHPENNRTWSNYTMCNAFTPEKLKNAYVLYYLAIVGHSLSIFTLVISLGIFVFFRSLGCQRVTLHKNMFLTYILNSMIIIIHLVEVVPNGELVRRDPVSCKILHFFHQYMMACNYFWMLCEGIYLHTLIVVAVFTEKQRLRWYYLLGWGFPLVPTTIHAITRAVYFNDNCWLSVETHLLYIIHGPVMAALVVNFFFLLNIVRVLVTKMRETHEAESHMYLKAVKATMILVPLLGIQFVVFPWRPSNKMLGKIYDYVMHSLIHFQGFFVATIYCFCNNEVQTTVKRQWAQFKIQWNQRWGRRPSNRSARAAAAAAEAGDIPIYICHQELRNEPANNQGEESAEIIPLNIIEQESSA

[6] = target: CGRP receptor on SK-N-MC cells; assay: cell-based or functional assay
[7] = target: T4, CGRP (biotinylated) (Rattus norvegicus, UniProt P01256 P01256:83-119); assay: SPR; KD in narrow band around G12; conditions: protein: synthetic; tags: biotin; synthetic peptide, Jerini
T4 chain: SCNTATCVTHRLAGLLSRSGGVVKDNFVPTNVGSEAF

[8] = target: calcitonin receptor-like receptor (CRLR) on SK-N-MC cells (human) (UniProt Q16602); assay: cell-based or functional assay
Chain of calcitonin receptor-like receptor (CRLR) on SK-N-MC cells (human) (Q16602 23-461): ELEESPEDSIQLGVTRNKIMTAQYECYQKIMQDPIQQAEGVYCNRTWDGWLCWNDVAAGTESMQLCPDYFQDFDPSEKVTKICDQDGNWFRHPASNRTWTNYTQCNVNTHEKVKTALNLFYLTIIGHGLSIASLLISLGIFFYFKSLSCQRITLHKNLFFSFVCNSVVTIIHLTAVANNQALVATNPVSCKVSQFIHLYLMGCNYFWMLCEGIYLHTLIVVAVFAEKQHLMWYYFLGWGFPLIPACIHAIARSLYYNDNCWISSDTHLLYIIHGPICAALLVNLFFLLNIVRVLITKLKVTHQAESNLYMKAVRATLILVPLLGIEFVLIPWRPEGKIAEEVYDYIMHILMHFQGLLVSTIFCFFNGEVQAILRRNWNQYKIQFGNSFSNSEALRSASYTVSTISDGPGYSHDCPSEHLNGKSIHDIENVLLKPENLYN

[9] = target: T3, calcitonin receptor on SK-N-MC cells (human); assay: cell-based or functional assay; remark: listed apart in the source
[10] = target: CGRP receptor on SK-N-MC cells; assay: cell-based or functional assay; remark: listed apart in the source

Molecule: CGCAGCCUUCACUGCAGUGACGCACGUAUGAUAGUUUCCAUUUUGGACUCCUGCG [732_045]
Kd [1]: 30000 nM

Molecule: CGCUCAGCCUUCACUGCAGUGACGCACGUAUGAUAGUUUCCAUUUUGGACUCCUGGGCG [732_096]
Kd [1]: 30000 nM

Molecule: GGACUGAUGGCGCGGUCCUAUUACGCCGAGAAGGGAGUGGGGGA [L097 (NOX-504-097) spiegelmer]
Kd [2]: 0.052 µM

Molecule: GGAGCUCAGCCUUCACUGCAGUGACGCACGUAUGAUAGUUUCCAUUUUGGACUCCUGGGCACCACGGUCGGAUCCAC [clone 732]
Kd [3]: 10000 nM
Kd ([1]; 666 with G20-A21 excised (in analogy to clone 732)): 20000 nM
Kd [4]: 23 µM

Molecule: GGAGCUCAGCCUUCACUGCGAAGUGACGCACGUAUGAUAGUUUCCAUUUUGGACUCCUGGGCACCACGGUCGGAUCCAC [clone 666]
Kd ([1]; unit uM, probably misprint for nM, method not specified here (Biacore/ITC in Ex. 1)): 10000 nM

Molecule: GGCAGCCUUCACUGCAGUGACGCACGUAUGAUAGUUUCCAAG / CUUGGACUCCUGCC [732_071a+732_071b]
Kd ([1]; two-strand binder): 100000 nM

Molecule: GGCAGCCUUCACUGCAGUGACGCACGUAUGAUAGUUUCCAUUUUGGACUCCUGCC [732_026]
Kd ([1]; stem shortened to five base pairs, FIG. 7): 30000 nM

Molecule: GGCAGCCUUCCUGCAGGACGCACGUAUGAUAGUUUCCUUUGGACUCCUGCC [732_100]
Kd ([1]; 51mer): 75000 nM

Molecule: GGCAGCCUUCCUGCAGGACGCACGUAUGAUAGUUUGCUUUGCACUCCUGCC [732_104]
Kd [1]: 40000 nM

Molecule: GGCAGCCUUGCUGCAGCACGCACGUAUGAUAGUUUCCUUUGGACUCCUGCC [732_103]
Kd [1]: 20000 nM

Molecule: GGCUCAGCCUUCACUGCAGUGACGCACGUAUGAUAGUUUCCAUUUUGGACUCCUGGGCC [732_029]
Kd [1]: 30000 nM

EC50, cAMP production in SK-N-MC cells [5]: 3 µM
Molecule: human amylin (from UniProt P10997 34-70) (peptide)

EC50, intracellular cAMP in SK-N-MC cells [6]: 1 µM
Molecule: human α-CGRP (from UniProt P06881 83-119) (peptide)

B1: G12d (ssRNA)
RNA: GGAGCUCAGCCUUCACUGCAUCGAAGGCGAUCCAAGUUGUAAGAAUGGGGGUGGCUUGGAGGGCACCACGGUCGGAUCCAG
binding result [7]: binds

B2: G12e (ssRNA)
RNA: GGAGCUCAGCCUUCACUGCAUCGAGGCGAUCCAAGUUGUAGGAAUUGGAUGACUUGGAGGGCACCACGGUCGGAUCCAG
binding result [7]: binds

B3: G12g (ssRNA)
RNA: GGAGCUCAGCCUUCACUGCAUCGAAGCGAUCCAAGUUGUAGGAAUGGGGUAGCUUGGAGGGCACCACGGUCGGAUCCAG
binding result [7]: binds

EC50, cAMP production in SK-N-MC cells [8]: 30 µM
EC50, intracellular cAMP in SK-N-MC cells [8]: 0.03 µM
B4: human adrenomedullin (peptide, UniProt P35318 95-146, looked up)
peptide: YRQSMNNFQGLRSFGCRFGTCTVQKLAHQIYQFTDKDKDNVAPRSKISPQGY

EC50, cAMP production in SK-N-MC cells [9]: 1 µM
Molecule: KCNTATCATQRLANFLVRSSNNLGPVLPPTNVGSNTY (peptide, UniProt P12969 38-74, looked up) [rat amylin]

EC50, intracellular cAMP in SK-N-MC cells [10]: 1 µM
cAMP formation in SK-N-MC cells, half-maximum activation [10]: 1 nM
Molecule: SCNTATCVTHRLAGLLSRSGGVVKDNFVPTNVGSEAF (peptide, UniProt P01256 83-119, looked up, ends and bridges not checked; cysteine pairing not given here) [rat α-CGRP (calcitonin gene-related peptide I, rat)]

EC50, intracellular cAMP in SK-N-MC cells [10]: 1 µM
Molecule: ACNTATCVTHRLAGLLSRSGGMVKSNFVPTNVGSKAF (peptide, UniProt P10092 82-118, looked up, ends and bridges not checked; cysteine pairing not given here) [human β-CGRP (calcitonin gene-related peptide II)]

B5: G12a (ssRNA)
RNA: GGAGCUCAGCCUUCACUGCAUCGAGGCAUCCAAGUUAUAGGAAUAGGGUGGCUUGAAGGGCACCACGGUCGGAUCCAG
binding result [7]: binds

B6: G12b (ssRNA)
RNA: GGAGCUCAGCCUUCACUGCAUCGAGGCAUCCAAGUUAUAGGAAUAGGGUGGCUUGAAGGGCACCACGGUCGGAUCCAG
binding result [7]: binds

B7: G12f (ssRNA)
RNA: GGAGCUCAGCCUUCACUGCAUCGAGGGCGAUCCAAGUUGUAGGAAUGGGGUGGCUUGGAGGGCACCACGGUCGGAUCCAG
binding result [7]: binds

B8: G12c (ssRNA)
RNA: GGAGCUCAGCCUUCACUGCAUCGAGGCGAUCCAAGUUGAGGAAUGGGGUGGCUUGGAGGGCACCACGGUCGGAUCCAG
binding result [7]: binds

EC50, cAMP production in SK-N-MC cells [8]: 30 µM
EC50, intracellular cAMP in SK-N-MC cells [8]: 0.03 µM
Molecule: YRQSMNQGSRSTGCRFGTCTMQKLAHQIYQFTDKDKDGMAPRNKISPQGY (peptide, UniProt P43145 94-143, looked up) [rat adrenomedullin]
